Data on three substances can be found in publication PMC4168779.

This assay has as its target Z protein fused to maltose binding protein, MBP-Z(N6C). The assay can be described thus: cross-linking.
The substance “ZSPA affibody (Afb) with BetY at site 36 (designed binder)” returned a PEPC efficiency (cross-linking efficiency) of 57%.
For “ZSPA affibody (Afb) with BrC6K at site 36, Afb(D36BrC6K) (designed binder)”, the PEPC efficiency (cross-linking efficiency) was determined as 73%.
The substance “ZSPA affibody (Afb) with IetY at site 36 (designed binder)” showed a PEPC efficiency (cross-linking efficiency) of 66%.
